# B1: α-LGR5 variant 4-ADC (antibody, human IgG1, kappa, V domains shown)
# VH: QVQLVQSGAEVKKPGASVKVSCKASGYTFTNYWMQWVRQAPGQGLEWIGEIDPSDSYTNYNQKFQGRVTLTVDTSTSTAYMELSSLRSEDTAVYYCARSLSGYVDYWGQGTTVTVSS
# VL: EIVMTQSPATLSLSPGERATLSCRASQDISNRLNWYQQKPGQAVRLLISYRSRRHTGIPARFSGSGSGTDYTLTISSLEPEDFAVYYCQQGNSLPPTFGGGTKLEIKR
# modifications: MMAE coupled through a divinyl pyrimidine bridging linker inserted within the heavy chain-light chain disulphide linkages, drug-to-antibody ratio of 4
# notes: ADC version of humanized variant 4 (clone 2.4); also called α-LGR5v4-ADC
# B2: α-LGR5 clone 2-ADC (antibody, mouse IgG2b, kappa, V domains shown)
# VH: QVQLQQPGAELVKPGASVKLSCKASGYTFTNYWMQWVKQRPGQGLEWIGEIDPSDSYTNYNQKFKGKATLTVDTSSSTAYMQLSSLTSEDSAVYYCARSLSGYVDYWGQGTTLTVSS
# VL: DIQMTQTTSSLSASLGDRVTISCRASQDISNRLNWYQQKPDGTVKLLISYRSRLHSGVPSRFSGSGSGTDYSLTISNLEQEDIATYFCQQGNSLPPTFGGGTKLEVRR
# modifications: MMAE coupled through a divinyl pyrimidine bridging linker inserted within the heavy chain-light chain disulphide linkages, drug-to-antibody ratio of 4
# notes: cleavable linker version; also called α-LGR5-ADC
# B3: α-LGR5 humanized (antibody, V domains shown)
# VH: B2 VH
# VL: DIQMTQTTSSLSASLGDRVTISCRASQDISNRLNWYQQKPDGTVKLLISYRSRLHSGVPSRFSGSGSGTDYSLTISNLEQEDIATYFCQQGNSLPPTFGGGTKLEVR
# notes: Direct transposition of the murine clone 2 variable domains into the human IgG scaffold; also called α-LGR5 humanised
# B4: α-LGR5 clone 2 (antibody, mouse IgG2b, kappa, V domains shown)
# VH: B2 VH
# VL: B2 VL
# notes: Murine monoclonal antibody; In immunofluorescence and flow cytometry it carried a fluorophore (Alexa647 or DyLight 650) and is given as FI-α-LGR5 / FL-α-LGR5; also called a-LGR5; hybridoma clone 2
# B5: scFv-α-LGR5 (scFv)
# scFv: EIVMTQSPATLSLSPGERATLSCRASQDISNRLNWYQQKPGQAVRLLISYRSRRHTGIPARFSGSGSGTDYTLTISSLEPEDFAVYYCQQGNSLPPTFGGGTKLEIKGGGGSGGGGSGGGGSGGGGSQVQLVQSGAEVKKPGASVKVSCKASGYTFTNYWMQWVRQAPGQGLEWIGEIDPSDSYTNYNQKFQGRVTLTVDTSTSTAYMELSSLRSEDTAVYYCARSLSGYVDYWGQGTTVTVSS
# notes: Made from human variant 4 (clone 2.4), VL-linker-VH; The protein in the Octet assay was 6xHis-tagged; also called scFv fragment; svFv-α-LGR5
# Legend:
# [1] = target: T1, RAD-displayed Fragment 1A of human LGR5 (human); assay: bio-layer interferometry (Octet), captured RAD-displayed fragment
# T1 construct: also called Frag1A
# T1 sequence (O75473 22-37, looked up): GSSPRSGVLLRGCPTH
# [2] = target: T2, endogenous human LGR5 of cancer cell lines (human, UniProt O75473 22-907); assay: cell-based or functional assay
# T2 sequence: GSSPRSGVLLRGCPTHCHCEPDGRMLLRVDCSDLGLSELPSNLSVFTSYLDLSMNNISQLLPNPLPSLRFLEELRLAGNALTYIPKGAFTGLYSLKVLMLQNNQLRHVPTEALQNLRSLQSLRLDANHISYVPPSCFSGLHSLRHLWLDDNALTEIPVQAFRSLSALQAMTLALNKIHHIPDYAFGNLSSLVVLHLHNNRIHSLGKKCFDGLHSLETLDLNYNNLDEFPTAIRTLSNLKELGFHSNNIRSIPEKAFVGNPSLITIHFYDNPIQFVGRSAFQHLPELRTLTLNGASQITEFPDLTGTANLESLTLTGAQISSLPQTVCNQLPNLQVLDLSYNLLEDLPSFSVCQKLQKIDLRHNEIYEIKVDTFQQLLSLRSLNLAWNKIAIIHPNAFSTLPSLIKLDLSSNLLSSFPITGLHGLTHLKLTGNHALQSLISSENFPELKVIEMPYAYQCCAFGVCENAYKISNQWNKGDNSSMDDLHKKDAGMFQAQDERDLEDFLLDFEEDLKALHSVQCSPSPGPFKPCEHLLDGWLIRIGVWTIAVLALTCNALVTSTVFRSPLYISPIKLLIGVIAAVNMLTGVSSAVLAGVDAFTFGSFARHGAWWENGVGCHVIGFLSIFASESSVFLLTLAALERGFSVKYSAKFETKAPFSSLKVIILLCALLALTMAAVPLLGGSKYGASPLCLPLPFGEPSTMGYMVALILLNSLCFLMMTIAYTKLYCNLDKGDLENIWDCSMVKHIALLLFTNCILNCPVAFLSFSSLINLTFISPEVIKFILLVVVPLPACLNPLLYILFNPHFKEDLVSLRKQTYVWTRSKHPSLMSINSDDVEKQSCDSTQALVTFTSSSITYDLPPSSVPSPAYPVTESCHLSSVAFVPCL
# [3] = target: T1, RAD-displayed Fragment 1A of human LGR5; assay: bio-layer interferometry (Octet), captured RAD-displayed fragment, 10 µM Fragment 1 peptide included
# murine LGR6 transgene = target: T3, murine LGR6 transgene (mouse, UniProt Q3UVD5 23-967); assay: western blot of lysates of HEK293T cells expressing the LGR transgenes
# T3 construct: whole, on cells; also called mLGR6
# T3 sequence (looked up): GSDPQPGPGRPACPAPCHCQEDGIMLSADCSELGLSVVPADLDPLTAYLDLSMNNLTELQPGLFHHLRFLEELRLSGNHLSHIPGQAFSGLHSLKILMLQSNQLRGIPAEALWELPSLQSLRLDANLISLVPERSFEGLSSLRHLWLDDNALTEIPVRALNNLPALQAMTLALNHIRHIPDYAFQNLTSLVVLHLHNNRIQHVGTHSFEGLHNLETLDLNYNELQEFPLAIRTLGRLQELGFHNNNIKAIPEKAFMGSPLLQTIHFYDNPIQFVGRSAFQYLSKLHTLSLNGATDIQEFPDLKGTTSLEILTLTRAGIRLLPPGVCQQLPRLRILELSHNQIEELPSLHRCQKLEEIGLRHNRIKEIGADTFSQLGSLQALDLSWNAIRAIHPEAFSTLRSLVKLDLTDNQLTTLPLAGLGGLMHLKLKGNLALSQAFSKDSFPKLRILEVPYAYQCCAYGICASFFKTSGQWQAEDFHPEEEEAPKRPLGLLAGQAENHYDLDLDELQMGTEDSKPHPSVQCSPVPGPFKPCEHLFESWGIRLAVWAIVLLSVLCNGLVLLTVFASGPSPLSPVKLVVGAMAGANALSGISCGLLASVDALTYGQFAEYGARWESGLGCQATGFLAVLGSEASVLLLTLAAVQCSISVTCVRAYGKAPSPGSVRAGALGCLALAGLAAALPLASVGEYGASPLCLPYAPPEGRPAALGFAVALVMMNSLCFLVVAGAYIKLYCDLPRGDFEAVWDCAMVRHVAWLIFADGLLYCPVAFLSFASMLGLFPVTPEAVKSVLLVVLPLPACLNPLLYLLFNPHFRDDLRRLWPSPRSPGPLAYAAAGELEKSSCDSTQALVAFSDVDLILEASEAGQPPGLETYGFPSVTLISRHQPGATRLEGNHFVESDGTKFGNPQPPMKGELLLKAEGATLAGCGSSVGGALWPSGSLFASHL
# human LGR4 transgene = target: T4, human LGR4 transgene (human, UniProt Q9BXB1 25-951); assay: flow cytometry of live HEK293T cells expressing LGR-eGFP transgenes, Fl-α-LGR5 against eGFP
# T4 construct: whole, on cells; Overexpressed in HEK293T cells with N-terminal HA tag, V2 receptor tail and eGFP; also tested as lysate; also called hLGR4; LGR4-eGFP
# murine LGR5 transgene = target: T5, murine LGR5 transgene (mouse, UniProt Q9Z1P4 22-907); assay: as above
# T5 construct: whole, on cells; Overexpressed in HEK293T cells with N-terminal HA tag, V2 receptor tail and eGFP; also tested as lysate; also called mLGR5; mLGR5-eGFP
# T5 sequence (looked up): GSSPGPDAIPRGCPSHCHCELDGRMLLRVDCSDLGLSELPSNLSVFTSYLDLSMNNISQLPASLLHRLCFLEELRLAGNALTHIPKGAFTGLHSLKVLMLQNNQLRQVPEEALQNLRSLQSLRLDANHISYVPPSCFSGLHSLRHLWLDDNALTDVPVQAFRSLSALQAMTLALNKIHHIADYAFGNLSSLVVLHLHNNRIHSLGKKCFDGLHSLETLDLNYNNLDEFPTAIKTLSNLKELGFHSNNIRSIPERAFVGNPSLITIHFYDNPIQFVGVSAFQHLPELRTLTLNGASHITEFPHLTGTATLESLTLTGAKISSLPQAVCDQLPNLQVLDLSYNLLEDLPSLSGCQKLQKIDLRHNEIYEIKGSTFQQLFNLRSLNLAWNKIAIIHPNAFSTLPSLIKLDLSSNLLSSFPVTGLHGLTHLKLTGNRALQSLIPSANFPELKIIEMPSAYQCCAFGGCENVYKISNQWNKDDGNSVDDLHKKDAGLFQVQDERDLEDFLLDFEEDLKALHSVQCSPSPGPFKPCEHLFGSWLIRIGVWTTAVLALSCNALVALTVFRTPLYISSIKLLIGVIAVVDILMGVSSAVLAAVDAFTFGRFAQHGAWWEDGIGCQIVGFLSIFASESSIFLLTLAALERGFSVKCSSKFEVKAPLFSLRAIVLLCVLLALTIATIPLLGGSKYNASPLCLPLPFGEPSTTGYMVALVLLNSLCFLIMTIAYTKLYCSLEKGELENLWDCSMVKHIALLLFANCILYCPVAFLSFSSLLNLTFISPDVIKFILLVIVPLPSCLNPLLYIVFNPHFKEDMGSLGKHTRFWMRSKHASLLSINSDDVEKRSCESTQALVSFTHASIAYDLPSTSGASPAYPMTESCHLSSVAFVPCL
# human LGR6 transgene = target: T6, human LGR6 transgene (human, UniProt Q9HBX8 25-967); assay: immunofluorescence of HEK293T cells expressing LGR-eGFP transgenes, stained with fluorescent clone 2
# T6 construct: whole, on cells; Overexpressed in HEK293T cells with N-terminal HA tag, V2 receptor tail and eGFP; also tested as lysate; also called hLGR6; LGR6-eGFP
# T6 sequence (looked up): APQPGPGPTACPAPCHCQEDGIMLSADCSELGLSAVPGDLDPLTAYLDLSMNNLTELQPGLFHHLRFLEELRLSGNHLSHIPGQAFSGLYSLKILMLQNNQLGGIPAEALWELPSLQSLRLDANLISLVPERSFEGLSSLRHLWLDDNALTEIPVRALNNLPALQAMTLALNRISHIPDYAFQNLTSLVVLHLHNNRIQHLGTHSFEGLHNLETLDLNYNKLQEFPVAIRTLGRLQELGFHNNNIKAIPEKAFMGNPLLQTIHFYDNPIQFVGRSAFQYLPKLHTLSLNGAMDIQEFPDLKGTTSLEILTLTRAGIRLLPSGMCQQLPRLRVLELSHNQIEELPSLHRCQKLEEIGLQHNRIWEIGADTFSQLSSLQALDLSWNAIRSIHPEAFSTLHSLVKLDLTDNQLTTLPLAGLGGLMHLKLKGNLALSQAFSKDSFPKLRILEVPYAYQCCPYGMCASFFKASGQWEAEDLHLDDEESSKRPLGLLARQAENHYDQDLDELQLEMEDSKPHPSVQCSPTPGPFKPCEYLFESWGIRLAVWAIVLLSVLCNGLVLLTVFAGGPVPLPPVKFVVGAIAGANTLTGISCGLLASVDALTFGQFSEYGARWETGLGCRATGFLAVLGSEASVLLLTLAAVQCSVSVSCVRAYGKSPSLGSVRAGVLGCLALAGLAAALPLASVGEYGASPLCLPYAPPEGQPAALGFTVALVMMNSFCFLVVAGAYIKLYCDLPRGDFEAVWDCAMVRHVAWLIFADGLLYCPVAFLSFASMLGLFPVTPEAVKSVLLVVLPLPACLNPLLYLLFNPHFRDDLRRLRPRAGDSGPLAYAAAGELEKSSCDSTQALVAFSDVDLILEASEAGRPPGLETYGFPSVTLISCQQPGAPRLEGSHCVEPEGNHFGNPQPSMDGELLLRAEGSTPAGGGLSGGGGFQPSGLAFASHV
# murine LGR4 transgene = target: T7, murine LGR4 transgene (mouse, UniProt A2ARI4 25-951); assay: western blot of lysates of HEK293T cells expressing HA-tagged LGR-eGFP transgenes, probed with hybridoma clone 2
# T7 construct: whole, on cells; Overexpressed in HEK293T cells with N-terminal HA tag, V2 receptor tail and eGFP; also tested as lysate; also called mLGR4
# α-LGR5 epitope peptide = target: T8, α-LGR5 epitope peptide (human); assay: bio-layer interferometry (Octet), scFv absorbed to Ni-NTA biosensors, epitope peptide SEQ ID NO: 210 added; scFv fragment, not whole IgG
# T8 construct: Peptide added to scFv-α-LGR5 absorbed on Ni-NTA biosensors; also called the peptide
# T8 peptide: SSPRSGVLLRGCPTHCHC
# Experimental: Binding affinities were determined by bio-layer interferometry measurements using the Octet platform.
# Binding affinity was determined by biolayer interferometry on the Octet platform.
binder,measurement,setting,value
B1,Kd,[1],2 nM
B2,"EC50 of cell killing, LoVo cells",[2],9 nM
same,"EC50 of cell killing, NALM6 cells, single dose, three days",[2],4 nM
same,"EC50 of cell killing, REH cells",[2],10 nM
same,"estimated EC50 for organoid cell apoptosis (cleaved caspase 3), CRC organoid line 1",[2],~5 nM
same,"estimated EC50 for organoid cell apoptosis (cleaved caspase 3), CRC organoid line 2",[2],~100 nM
same,Kd,[1],2.7 nM
B3,Kd,[1],3.4 nM
B4,Kd,[3],1.1 nM
same,binding result,murine LGR6 transgene,no binding
same,binding result,human LGR4 transgene,no binding
same,binding result,murine LGR5 transgene,no binding
same,binding result,human LGR6 transgene,no binding
same,binding result,murine LGR4 transgene,no binding
B5,Kd,α-LGR5 epitope peptide,0.77 nM
